Paper PMC12362618, “Development of the First Small-Molecule Inhibitor Targeting Oncostatin M for Treatment of Breast Cancer” (Journal of Medicinal Chemistry, 2025)

Target: T1, immobilized OSM (Homo sapiens, UniProt P13725)
T1 construct: purchased R&D Systems 671-GP
T1 sequence (P13725 26-212 limits assumed): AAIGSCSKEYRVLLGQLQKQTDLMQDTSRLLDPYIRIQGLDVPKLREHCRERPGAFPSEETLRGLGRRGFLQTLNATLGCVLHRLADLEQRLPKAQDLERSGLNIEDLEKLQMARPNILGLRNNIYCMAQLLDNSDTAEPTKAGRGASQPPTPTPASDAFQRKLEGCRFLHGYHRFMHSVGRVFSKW
Experiment: SPR binding kinetics of gp130 on immobilized OSM
Conditions: 25 °C
Procedure: SPR assays were used to investigate the ability of SMI-10B13 to disrupt the binding of the OSM receptor. We began our SPR assays by replicating the gp130-to-immobilized OSM binding kinetic experiment published by Chollangi et al. to evaluate the reliability of our setup. In this experiment, increasing concentrations of gp130 were injected, and the association and dissociation phases were monitored. […] However, the signal generated was insufficient for meaningful results, likely due to the suboptimal availability of accessible binding sites for […], although maximum feasible concentrations of both immobilized and injected gp130 were reached. As a result, we shifted our focus to assess whether SMI-10B13 could influence the recruitment of gp130 to OSM in a surface competition binding assay. […] While this effect could be justified by site II competitive binding at high SMI concentrations, the NMR CSP experiments are indicative of SMI binding at site III (Figure ). […]
SPR experiments were performed on a Reichert SR7000 instrument that was fed by a Surveyor LC autosampler and pump. […] The real-time changes in refractive index units of the association and dissociation phases were monitored. […]

B1: gp130: glycoprotein 130 receptor subunit (R&D Systems, cat. #671-GP) injected over immobilized OSM in SPR (protein)
chain: ELLDPCGYISPESPVVQLHSNFTAVCVLKEKCMDYFHVNANYIVWKTNHFTIPKEQYTIINRTASSVTFTDIASLNIQLTCNILTFGQLEQNVYGITIISGLPPEKPKNLSCIVNEGKKMRCEWDGGRETHLETNFTLKSEWATHKFADCKAKRDTPTSCTVDYSTVYFVNIEVWVEAENALGKVTSDHINFDPVYKVKPNPPHNLSVINSEELSSILKLTWTNPSIKSVIILKYNIQYRTKDASTWSQIPPEDTASTRSSFTVQDLKPFTEYVFRIRCMKEDGKGYWSDWSEEASGITYEDRPSKAPSFWYKIDPSHTQGYRTVQLVWKTLPPFEANGKILDYEVTLTRWKSHLQNYTVNATKLTVNLTNDRYLATLTVRNLVGKSDAAVLTIPACDFQATHPVMDLKAFPKDNMLWVEWTTPRESVKKYILEWCVLSDKAPCITDWQQEDGTVHRTYLRGNLAESKCYLITVTPVYADGPGSPESIKAYLKQAPPSKGPTVRTKKVGKNEAVLEWDQLPVDVQNGFIRNYTIFYRTIIGNETAVNVDSSHTEYTLSSLTSDTLYMVRMAAYTDEGGKDGPEFTFTTPKFAQGEIE
  Kd: 20.5 nM
